Test results reported in the supplement of paper PMC9170038.

Tested on: K4 kissing-loop RNA reporter
Test: apparent KD of K4 kissing-loop reporter; higher = weaker reporter binding
Settings: Eterna round: R107; input ligand: theophylline 20 uM
Description: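 RNA-MaP round R107: designed RNA switches with theophylline, tryptophan, arginine or FMN aptamers are transcribed on-chip within common flanks. They are titrated with a labelled K4 kissing-loop RNA reporter in RNA-MaP buffer (100 mM Tris pH 7.5, 80 mM KCl, 4 mM MgCl2), without ligand or with the indicated ligand. Median apparent KD per design.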
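Note: bound reporter read as fluorescence of individual clusters on recovered sequencing chips by microscopy, with normalized cluster intensities fitted with a binding model.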

| Sequence | apparent KD of K4 kissing-loop reporter |
| --- | --- |
| CGAACCUCCAAAGGAUAUCUCGUUUAGUGAUGUUUUGCGUAGUAUCAGGAUAGAAUAUUGAUUCAGAGAGAAGGUUGACGUUGGU [theeternabot_exclusion_KL_FMN_B_14] | 511 nM |
| CCAUCGCUAUUCGAUACCAGCUACUUAGUGAUGUUAAGUUAAAAUCCAUUGUAGAUGGAAAGCCCUUGGCAGCGAAUAGUGAUGG [Theophylline B K4 22] | 210 nM |
| GCCGUAGAUUGAAGGAGCGGGCCGUAGUGAUGUUACGCCAAAUUAUCCUUUCUUGAGGUGGUCCAGGUAGGUCGCAAUCUACGGC | 109 nM |
| UACUUAUUUUUUAACUUAAAUUUUUCAGAAGGAGCGUGAUCAUUCACAGGUAGGUCGCUGAACUAGUGAUGUUAGUUUUAAUUUU [JR_Nu_ExcArginiA_Sub024] | 104 nM |
| AAUUAAUACAGAAGGAGCGUGUAUUUAACUACAAUUAUCUUAGCGAGUGAUGUUCGUUUUACACAGGUAGGUCGCUGUAUAUUUA [JR_ExcArginiB_Sub010] | 262 nM |
| UUAGAGAUCUCAGGAUAUCAGUGAUGUUGGUUUCCAGAUCUGAGAUAGAAUUCUAUCUCAGAUCAAUGAGAAGGGAGAUCUCAUU [AK4.1 Exc FMN B] | 132 nM |
| CUAUCGGUGCCAGUGAUGUUGGUACCGCCACGAGGACCGGUACGGCCGCCACUCGCAUUAGAUGAUCACACAGUGUAUACUGCUA [Aleusorza] | 159 nM |
| AGGCACGAGCAAGGAUAUCGAGUAGAGUGAUGUUCUGCCUGGGUUGGCUCGCAAGGGCCUUCCCAGCGAGAAGGUGCUCGUGCCU [#2 Same State - FMN A Attempt #17 (HarryS)] | 745 nM |

Same assay, conditions: Eterna round: R107; input ligand: tryptophan 2.4 mM

| Sequence | apparent KD of K4 kissing-loop reporter |
| --- | --- |
| CACUCGGUAUCAGAUACCAGACUAUCGAUACCGAGUGUAUCGGGUAGUGAUGUUACCAUAGUCCCUUGGCAGCUGAUAUUGCAUA [Theo B SS t9b] | 59.2 nM |
| AGUGUGCAAAAGCACACUCAGAACAAGGACAAGGAUAUCUACUAAUAGAGAAGGUGUCCUUUCCUUAGUGAUGUUAAGGAACUGA [Omei KL FMN A SS D v5] | 615 nM |
| CGUAGAUACUGAGGAUAUCAGAAAUCUGAUAUCAUCAGAGGUCUGAGUGAUGUUCAGAUGCGACUCUGAGAAGGCAGUAGGAGUC [FMN B Ex t2] | 115 nM |
| UCCAGCAGUACUGAUACCAGACUGCAUGUAGUGAUGUUGCAUAAGGGCAUAGAUGUCUCAGUCCCUUGGCAGCGGUACUGUUGCA [#09 K4 Theophylline B Same State] | 286 nM |
| UUCCGGGCCGAAGGAUAUUGGAGUGAUGUUUCAAGACGUUCGUCCCAGCCCAUAGUAACUAUCGCCCAAGAAGGUCGUAUUGAAU [theeternabot_exclusion_KL_FMN_B_13] | 157 nM |
| GCGCGUCAUGUCAGCGGUGACUAUGUCGAUACCAGCGCCGCAAGGCGCCCUUGGCAGCGACGCGCUGGAGUGAUGUUCCGACGGC [#2 Exclusion - Theophylline A Attempt #9 (HarryS)] | 129 nM |
| CGCUGGAGUGAUGUUCCAGCUUCUACGGAUACCAGCCACGCCAGCGGCCCUUGGCAGCCGCAAAUUGCAGUGAUGUUGUGAUGCC [Same State Theophylline A GF 4] | 283 nM |
| AUAUAUAACUGAAGGAGCGAGGCCAAAUAUAUAUAGUGAUGUUAUAUAAAGGCACAUAGGCCUCAGGUAGGUCGCAGAAUAAUAU [AstrosExyArGB#1] | 281 nM |
| CAUUGUACACGGUGCGAAGACCCAAUGGAUACCAGCAAUACAUUAUGCCCUUGGCAGCCAAGAGUGAUGUUCGACGGACUAGAUU [theeternabot_sameState_KL_Theo_A_4] | 233 nM |
| CAAGUCGAAAAGUGAUGUUUUUCAUACGAUACCAGCAACCAGACAUGCCCUUGGCAGCGUCCAUUACGUUUCUGAGCCCGUACAG [theeternabot_exclusion_KL_Theo_A_40] | 308 nM |
| AGUGUUGUUUUUUUUAAGAGUGAUGUUUUUCGAGGACCGGUACGGCCGCCACUCGAGUGAUGAGUGAGGUGUGGUGAUGAUUAGU [#10 K4 Tryptophan A Exclusion] | 337 nM |
| GGGAUGAUGUCGGCCGCCACUGACUGUGUCCAGUGAUGUUGGGAGUGUACGGAAGUUCCAUAUAUCAGGACCGGGACCUCGCUCC [theeternabot_sameState_KL_Trp_B_44] | 616 nM |
| AAAGAUCUUCUAGAAACUAGAAGAUCAAGAGAGGAUAUCCGAAUUCGGAGAAGGCUCGCUAAGUGAUGUUUGGACCCAAAGGGAA [AK3.1 SS FMN A] | 1130 nM |
| UGAUUGAACUGAAGGAGCGGCAAGAGAGAAGGAAAUAUAGUGAUGUUAUAUAAGAGAGAGAGCCAGGUAGGUCGCAGAGGGAGGA [ExArgB.D] | 151 nM |
| GCGCGGCUCAGUGAUGUUGAGCCUCGGAGACGAGGACCGGUACGGCCGCCACUCGUCCGCGCAGCUGAGGCAAAAGCCUCGGCAA [Omei KL Tryp A SS B v3] | 141 nM |
| GGUUCUCUGUUAGGAUAUAGAUUAGAGUGAUGUUCUAACGGCCCGGGCCCGAAAGGGCCCGGGCCGCUAGAAGGAACGGAGUUGG [#2 Same State - FMN A Attempt #1 (HarryS)] | 444 nM |

| Sequence | apparent KD of K4 kissing-loop reporter |
| --- | --- |
| AAACGUUGGUGCGAUACCAGCUGAUCGGAAACGAUCUUGCUGGAGUGAUGUUCCAGGAAAAGCCCUUGGCAGCGCACCGACGAAA [MAT - Same State Theophlline B - Mod of Eli - D26] | 928 nM |
| AAAAUAAAUCAGUGAUGUUGGUAUCUGGAUACCAGCGAUAAUCAUCGCCCUUGGCAGCCAUGGACGUACAAAAUAAGUACGUCCU [MatMod 17 - Jieux - Same State - Theophylline A] | 193 nM |
| CAACGAGUGAUGGUCGUUGACGGCCAUCCCGAGGAUAUGGGAUUAUCCAGAAGGCGGGAUCGCCGGGAGUGAUGUUCCCUGAUCA [Same State FMN A GF 14] | 151 nM |
| AGAGAUAUAUGAGGAUAUGAGAUAGUUAAUGAGUGAGUUUUAGUGUUGUUUGGUUAGUGAUGUUAUUUAGAAGGCGUGAGUGAUG [grrfullin] | 65.7 nM |
| AAUUCUUAUCUUAGUAGAUUUCUAAUUAAACGAGGACCGGUACGGCCGCCACUCGGUUAUGAGUGAUGUUCAUGGAAUUACAUAA [JR_SSTryptoA_Sub018] | 172 nM |
| GGCAUAUGGGCAGGAUAUAGGCAGGUAGAGUGAUGUUCUUUCUGAAUAAUUCCAUCCUUCUACCUACUAGAAGGGCCCAUAUGCC | 67.9 nM |
| GGAUAGGACAUAGGAUAUGGGCUAGGCAAGAAUAACUUGUCUAGCAAAUCCAUGAGGAGUGAUGUUCCAGAAGGAUGUCCUAUCG [FmnBX 1 U11+A75] | 84.5 nM |
| CGAACCUCCAAAGGAUAUCUCGUUUAGUGAUGUUUUGCGUAGUAUCAGGAUAGAAUAUUGAUUCAGAGAGAAGGUUGACGUUGGU [theeternabot_exclusion_KL_FMN_B_14] | 537 nM |
| CCAUCGCUAUUCGAUACCAGCUACUUAGUGAUGUUAAGUUAAAAUCCAUUGUAGAUGGAAAGCCCUUGGCAGCGAAUAGUGAUGG [Theophylline B K4 22] | 410 nM |
| GCCGUAGAUUGAAGGAGCGGGCCGUAGUGAUGUUACGCCAAAUUAUCCUUUCUUGAGGUGGUCCAGGUAGGUCGCAAUCUACGGC | 118 nM |
| UACUUAUUUUUUAACUUAAAUUUUUCAGAAGGAGCGUGAUCAUUCACAGGUAGGUCGCUGAACUAGUGAUGUUAGUUUUAAUUUU [JR_Nu_ExcArginiA_Sub024] | 56.5 nM |
| AAUUAAUACAGAAGGAGCGUGUAUUUAACUACAAUUAUCUUAGCGAGUGAUGUUCGUUUUACACAGGUAGGUCGCUGUAUAUUUA [JR_ExcArginiB_Sub010] | 157 nM |
| UUAGAGAUCUCAGGAUAUCAGUGAUGUUGGUUUCCAGAUCUGAGAUAGAAUUCUAUCUCAGAUCAAUGAGAAGGGAGAUCUCAUU [AK4.1 Exc FMN B] | 123 nM |
| CUAUCGGUGCCAGUGAUGUUGGUACCGCCACGAGGACCGGUACGGCCGCCACUCGCAUUAGAUGAUCACACAGUGUAUACUGCUA [Aleusorza] | 122 nM |
| AGGCACGAGCAAGGAUAUCGAGUAGAGUGAUGUUCUGCCUGGGUUGGCUCGCAAGGGCCUUCCCAGCGAGAAGGUGCUCGUGCCU [#2 Same State - FMN A Attempt #17 (HarryS)] | 830 nM |
